{
  "source": "paper PMC11662680",
  "key": {"[1]": {"molecular_target": "CapW from Rhizobium leguminosarum (Rhizobium leguminosarum)", "assay": "crystal structure"}, "Ec CapW R200A [2]": {"molecular_target": "T1, Ec CapW R200A (Escherichia coli upec-117, UniProt P0DX76 1-299, R200A)", "T1 sequence": "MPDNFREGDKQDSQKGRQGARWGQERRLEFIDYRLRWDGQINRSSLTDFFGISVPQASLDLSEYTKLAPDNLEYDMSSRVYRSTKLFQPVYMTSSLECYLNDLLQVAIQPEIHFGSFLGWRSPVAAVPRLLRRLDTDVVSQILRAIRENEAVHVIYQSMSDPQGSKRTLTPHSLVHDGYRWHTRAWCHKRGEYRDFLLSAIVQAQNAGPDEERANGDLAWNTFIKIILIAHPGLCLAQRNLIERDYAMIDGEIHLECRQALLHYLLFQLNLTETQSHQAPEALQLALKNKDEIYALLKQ", "assay": "fluorescence polarization"}, "Ec CapW S158E [3]": {"molecular_target": "T2, Ec CapW S158E (Escherichia coli upec-117, UniProt P0DX76 1-299, S158E)", "T2 sequence": "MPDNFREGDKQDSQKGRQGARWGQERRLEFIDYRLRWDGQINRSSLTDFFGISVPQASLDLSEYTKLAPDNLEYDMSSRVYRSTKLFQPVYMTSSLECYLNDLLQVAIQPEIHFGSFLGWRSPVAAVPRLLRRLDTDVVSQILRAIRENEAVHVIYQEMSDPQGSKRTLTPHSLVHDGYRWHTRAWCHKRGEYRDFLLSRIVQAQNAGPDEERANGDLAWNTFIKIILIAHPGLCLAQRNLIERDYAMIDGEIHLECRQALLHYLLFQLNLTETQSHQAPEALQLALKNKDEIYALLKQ", "assay": "fluorescence polarization"}, "Rl CapW WT": {"molecular_target": "T3, Rl CapW WT (Rhizobium leguminosarum, UniProt PDB:9C5G_1 1-299)", "T3 sequence": "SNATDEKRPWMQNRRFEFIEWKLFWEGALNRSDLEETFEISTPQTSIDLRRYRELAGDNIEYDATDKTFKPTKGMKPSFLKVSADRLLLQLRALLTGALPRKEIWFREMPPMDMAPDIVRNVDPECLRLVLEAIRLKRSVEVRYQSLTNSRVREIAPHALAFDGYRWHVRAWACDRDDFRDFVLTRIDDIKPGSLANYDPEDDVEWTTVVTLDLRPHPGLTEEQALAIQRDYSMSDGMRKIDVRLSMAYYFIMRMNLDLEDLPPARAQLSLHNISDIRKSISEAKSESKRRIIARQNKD", "assay": "X-ray crystallography"}, "Ec CapW WT": {"molecular_target": "T4, Ec CapW WT (Escherichia coli upec-117, UniProt P0DX76 1-299)", "T4 sequence": "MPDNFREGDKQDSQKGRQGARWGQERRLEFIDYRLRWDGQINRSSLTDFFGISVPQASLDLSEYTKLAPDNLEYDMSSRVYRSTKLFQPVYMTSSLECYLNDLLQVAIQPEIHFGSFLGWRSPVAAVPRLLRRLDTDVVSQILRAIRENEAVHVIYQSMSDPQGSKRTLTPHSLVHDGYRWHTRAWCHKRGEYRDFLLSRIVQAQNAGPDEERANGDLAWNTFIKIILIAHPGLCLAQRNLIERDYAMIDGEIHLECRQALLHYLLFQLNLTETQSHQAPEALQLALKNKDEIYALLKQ", "assay": "fluorescence polarization"}, "Ec CapW R200A [4]": {"molecular_target": "T1, Ec CapW R200A", "assay": "fluorescence polarization", "remark": "listed apart in the source"}, "Ec CapW S158E [5]": {"molecular_target": "T2, Ec CapW S158E", "assay": "fluorescence polarization", "remark": "listed apart in the source"}},
  "note": "Read-outs that look alike come from different tables or passages of the source.",
  "data": [
    {"molecule": "CapW from Rhizobium leguminosarum (natural protein)", "values": [
      {"measurement": "stoichiometry N", "setting": "[1]", "result": 2}
    ]},
    {"molecule": "CapW 30 bp palindromic binding site (dsDNA) DNA 1: TAAAAACTGATCGTATAATAATGCTACGCT DNA 2: AGCGTAGCATTATTATACGATCAGTTTTTA", "values": [
      {"measurement": "binding result", "setting": "Ec CapW R200A [2]", "result": "binds"},
      {"measurement": "binding result", "setting": "Ec CapW S158E [3]", "result": "binds"}
    ]},
    {"molecule": "TTTTTTT (ssDNA)", "note": "[7mer poly-T, unlabeled]", "values": [
      {"measurement": "binding result", "setting": "Rl CapW WT", "result": "binds"}
    ]},
    {"molecule": "AAAAAAA (ssDNA)", "note": "[7mer poly-A]", "values": [
      {"measurement": "binding result", "setting": "Ec CapW WT", "result": "no binding"}
    ]},
    {"molecule": "UUUUUUU (ssRNA)", "note": "[7mer poly-U RNA]", "values": [
      {"measurement": "binding result", "setting": "Ec CapW WT", "result": "no binding"}
    ]},
    {"molecule": "TTTTTTT (ssDNA)", "note": "[7mer poly-T, FAM]", "values": [
      {"measurement": "binding result", "setting": "Ec CapW R200A [4]", "result": "no binding"},
      {"measurement": "binding result", "setting": "Ec CapW S158E [5]", "result": "no binding"}
    ]}
  ]
}
